Experimental data from the Human Domainome abundance scans (Beltran et al. 2025).

B1: POU domain, class 2, transcription factor 1, residues 285 to 354; numbered along this chain, P14859 (parent)
chain: LEELEQFAKTFKQRRIKLGFTQGDVGLAMGKLYGNDFSQTTISRFEALNLSFKNMCKLKPLLEKWLNDAE

Variants of: B1
Assay: abundance fitness (aPCA) (normalised: wild type 0, dead -1); higher = more abundant; growth selection in yeast, the domain comes from the species named
Settings: Homo sapiens

Abundance fitness of substitutions, site by site:
T40: C 0.019; Y 0.077; G -0.028; F 0.067; N 0.004; M -0.059; W -0.054; K -0.071; S -0.007; L -0.001; H -0.035; P -0.032; R 0.014; D -0.15; Q 0.016; E -0.354; I -0.142
A47: G 0.001; R -0.044; N 0.033; Q 0.017; S -0.048; K -0.015; E 0.055; L 0.054; D 0.092; P -0.964; H -0.107
L50: E -0.041; Q -0.207; R -0.738; S -0.151; D -0.026; G -0.074; M 0.038; N -0.385; Y -0.03; A -0.121; I -0.135; W -0.148; P -0.678; T -0.073; C 0.007; V -0.1
D36: M -0.121; K -0.028; E -0.027; A -0.049; C -0.036; H -0.077; V -0.029; G -0.092; L 0.014; Y -0.037; S -0.05; N -0.043; Q -0.034; P -0.058; R -0.047; I -0.006; F -0.19
R44: Y -0.155; A 0.013; N -0.165; P -1.02; S 0.015; K -0.048; I -0.794; W -0.253; M -0.032; L -0.026; T -0.089; Q 0.042; D -0.058; C -0.053; E -0.059; H -0.027
N49: L -0.029; I 0.025; W -0.218; V -0.052; Y -0.063; G -0.002; P -0.65; Q 0.007; E 0.043; C -0.086; T 0.03; H -0.063; R -0.079; D 0.033; K -0.045; F -0.279; S -0.004
M55: G -0.068; F -0.107; K -0.51; I -0.086; L -0.013; E -0.488; C -0.12; H -0.247; D -0.381
N35: I 0.03; E 0.025; G 0.053; M -0.108; Y -0.494; T 0.002; K 0.006; S -0.038; D 0.035; A -0.011; R 0.008; V -0.057; H 0.073; Q 0; P -0.031
K53: Y -0.122; R 0.015; P 0.007; M 0.078; S -0.006; C 0.015; V -0.048; G -0.017; L 0.008; A 0.049; H -0.024; I 0.089; N 0.063; T -0.028; E 0.039; F 0.041; D -0.029; Q -0.019
L48: M -0.007; I 0.014; T -0.004; S -0.005; P -0.336; A -0.054; W -0.142; F -0.054; K 0.084; R 0.004; N -0.03; C 0.001; Q 0.006; Y -0.053; V -0.085
G34: W -0.301; Y -0.165; V -0.164; S -0.1; T -0.16
S43: G -0.156; Q 0.029; K 0.121; P -0.03; W -0.086; H -0.077; F -0.088; D -0.161; I -0.064; N 0.005; E -0.013; C -0.033; M -0.013; Y -0.053; R 0.018; T -0.007; L -0.067; A 0.035
N54: S 0.009; I 0.054; H 0.004; D 0.08; M -0.005; A 0.019; C 0.011; K 0.009; Y -0.01; P -0.135; L -0.005; V 0.006; G -0.018; T -0.008
S38: Y -0.271; G 0.023; F -0.199; Q -0.03; D 0.048; P -0.041; A -0.038; E -0.03; R -0.061; N -0.032; K -0.011; T 0.012
F37: A -0.081; P -0.148; V 0.038; L -0.003; C 0.028; D 0.006; S -0.119; N -0.337; E -0.199; R -0.355; I -0.011; M -0.011; Y -0.135; G -0.211; T -0.059; K -0.184; Q -0.214
F52: N -0.039; D 0.007; W -0.002; Y 0.001; C -0.037; R -0.001; K -0.024; P -0.324; G -0.059; I 0.013; E -0.035; H 0.059; Q -0.059; S -0.017; V 0.009; L -0.005; A 0.017; M -0.026; T 0.02
Q39: G 0.005; M -0.056; V -0.033; H 0.028; D 0.008; P -0.011; N -0.055; W -0.005; S 0.015; I -0.057; F -0.14; R 0.005; E 0.013; K 0.014; A 0.015; C -0.037; L -0.026; T 0.008
I42: C -0.336; L -0.074; W -0.655; H -0.983; A -0.655; S -0.997; D -1.08; K -0.789; M -0.276; R -0.869; G -1.09; P -0.877; Q -0.948; N -0.805; Y -0.674
E46: Q -0.851; T -0.934; Y -1.02; D -0.754; V -0.852; K -0.658; I -0.84; W -0.698; L -1.01; H -0.856; N -0.783; C -0.801; G -0.929; F -1
S51: P 0.002; T -0.035; G 0.028; R -0.056; K -0.023; A -0.055; I -0.801; Q -0.09; Y -0.496; C -0.086; H -0.076; N -0.099; F -0.807; M -0.472; W -0.982; L -0.579; E 0.003
T41: M -0.029; I -0.067; R -0.098; L -0.023; S 0.005; V -0.029; F -0.1; W -0.088; C -0.08; D -0.018; E -0.163; K 0.022; P -0.209; A -0.02; H -0.052; N -0.029; Q -0.028
F45: Q -1.02; R -1.01; V -0.429; E -1.01; Y -0.133; N -1.04; A -0.62; L -0.115; K -0.97; I -0.382; W -0.247; T -0.847; S -0.864; M -0.137; H -0.952; C -0.451; P -1.04
